Data: publication PMC7321126, “Recombinant Expression and Stapling of a Novel Long-Acting GLP-1R Peptide Agonist” (Molecules, 2020)

How the values were obtained:
[1] = biological target: GLP-1R on cAMP Hunter CHO cells (UniProt P43220)
[2] = biological target: human GLP-1R on HEK293-GLP-1R-CRE cells (human) (UniProt P43220)
Sequence of human GLP-1R on HEK293-GLP-1R-CRE cells (human) (P43220 24-463): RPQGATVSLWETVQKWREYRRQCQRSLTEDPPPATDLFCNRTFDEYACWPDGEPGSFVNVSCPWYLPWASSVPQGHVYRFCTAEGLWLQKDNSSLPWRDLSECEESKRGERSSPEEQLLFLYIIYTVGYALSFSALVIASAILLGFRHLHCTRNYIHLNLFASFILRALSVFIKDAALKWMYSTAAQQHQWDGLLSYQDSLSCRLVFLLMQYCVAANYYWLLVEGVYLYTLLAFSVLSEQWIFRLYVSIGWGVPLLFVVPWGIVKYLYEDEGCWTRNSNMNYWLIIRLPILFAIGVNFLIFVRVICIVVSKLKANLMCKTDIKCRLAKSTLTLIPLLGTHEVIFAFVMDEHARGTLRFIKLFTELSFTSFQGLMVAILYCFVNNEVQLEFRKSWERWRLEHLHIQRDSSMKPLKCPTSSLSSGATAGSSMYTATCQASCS

Sequence of GLP-1R on cAMP Hunter CHO cells (P43220 24-463): as above

| Substance | EC50, intracellular cAMP (HTRF) assay in cAMP Hunter CHO cells expressing GLP-1R [1] | EC50, CRE luciferase reporter assay in HEK293-GLP-1R-CRE cells [2] |
| --- | --- | --- |
| Semaglutide (peptide) | 210 pM | 24 pM |
| exenatide (Ex-4) (from UniProt P26349 48-87) (peptide) | 111 pM | 37 pM |
